According to a protein production outcome set (Wang et al. 2014):

Experiment: label from the status in PepcDB records
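Further: failed if final PepcDB status was selected cloned or expressed and not failed if soluble or beyond.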

Sequence | protein production
VRGFLIVGNKAFTQPFSLNDLPGAGRMDVLCRCTSQALFISHGIRRDVEVYLLLLGPPSPPKSILIKGDEVRRMSPDERNVAGHIKKALAVECGKSWKKVHSGVYVSRKGLEELIEELSEKYSIIYLKEDGVDISNAQLPPNPLFVIGDHEGLTEEQEKVVERYAALKLSLSPLSLLAEQCVVIAHHHLDRLQF | not failed
MLRSLRLAALLGSLLMAVAASARDIDAASYGYPLTNPFEATIATTPPDKRPELPSDDEITQSDYSLNLRPEREFTLPDNFWAVKKLKYRLARQDHEAPLIFIIAGTGAPYSSSINEYLKKLFYQAGFHVVQLSSPTSYDFMSAASRFATPGISQEDAEDMYRVMQAVRAQHPRLPVSDFYLTGYSLGALDAAFVSHLDETRRSFNFKRVLLLNPPVNLYTSINNLDKLVQTQVKGIDRSTTFYELMLEKLTRYFQDKGYIDLNDALLYDFQQSRQHLSNEQMAMLIGTSFRFSAADIAFTSDLINRRGLIIPPKFPITEGSSLTPFFKRALQCDFDCYMTEQVIPMWRARTDGNSILQLVNQVSLYALEDYLRSSDKIAVMHNADDVILGPGDIGFLRKVFGERLTLYPHGGHCGNLNYRVNSDAMLEFFRG | failed
MSTCTLRFKNDWLKIFTCPVPSSDFLSFVGVATIDAPQHAVLSLLYDIESATEWVWKTREMRVLQELADDNEGRVVYQVVSAPWPVSDREIISRSTAYKDPETGEVFIKIESLPDFIPETSNCVRVRKLEGAWNILPLSENSCRVVFRLHIEPAGEIPSWLANIAVIDTPYHTLNNMRDMVKREKYKNPLEHHHHHH | failed
MKVERRTIEYIPNEERHGKAKDLFPVWFGANMHITTLVTGTIPVAMGLNLFWSVAAIICGTLIGAIFMASHSAQGPQLGIPQMIQSRAQFGVIGAILPLFLVMFIYLGFFASSTILAAGTLSSFVPIPGSWSIIGLSAVCFLLTIFGHDLIHKMQKILSWTSFAVFFAATILIFQLPIPAGSWIPGAIDLPIFLVAVSAVATWQLAYAPYVADYSRYLPVKTPASKTFWYSYAGTSVSSIWMMLLGALLTTSLPDFTANSGSQIVQLFGPFSFIMLIIVLFGQMAINVFNLYGAFMSTTTTLEPFLKLKVTPKVRIIMILGVTLVGTVLSLLGQSNFMELFLNFIFFISYFLIPWTAINLVDYYFVRHGKYQVKAMFDVNGPYGKVNWITTIAFVLSILLEIPFINTSFYIGPLAKMFGGGDIAWIIGLAVPSVLYYVLMKPRLKKRAGYQEKLSSL | failed
MGLTSHKYKYVSIYFLALLFLGIAVIESLHISHTRDLQEGLRQQAKEDLSIVRFQLEAEILGDIYTVKGLTTLLTLDPDLNIYQWEPLSAAVIRNSDHLRSLGIAPNDVVAFSYPLPQTNALLGLDYRTVPQQWQSIKKAREIKQTFVSGPVDLVQGGRALVIREPIFYDPPKDTRYWGVLSVVMDWDSLLSATSIYSFGEHFQVAIRGLDSRGSEGDVFFGEPRVFEHAFAQENVYFPYGSWRIAVAEKQDLLQQLSWYTRNAVRLLGYSVLLVLMAGFGVIMRLYQVAEERALHDPLTHLPNRRYFIYTIEHYFENAKRSHSEGNFALLNIDIDRFKSINDSHGHSAGDKVLVACAERIKSSLRVSDLVARIGGDEFLVLIPRIHREQDVLKVSDNILKRISETPIVYDDKLIHVRVSIGYALYDQSFATPDEMFKLADERMYTAKRRQNPLYRF | failed
MIVNEPVPDTFEDTPAKDRDPDWFKRAVFYEVLVRSFQDSNGDGIGDLKGLTAKLDYLQWLGVDCLWLPPFFKSPLRDGGYDVSDYTAVLPEFGDLADFVEFVDAAHQRGMRVIIDFVMNHTSDQHPWFQESRRNPDGPYGDYYVWADDDKQFQDARIIFVDTEASNWTYDPVRKQYYWHRFFSHQPDLNYENPVVQEEMISALKFWLDLGIDGFRLDAVPYLYQEEGTNCENLPRTHDFLKRVRKEIDAQYPDTVVLAEANQWPEDVVDYFGDYAAGGDECHMAFHFPVMPRIFMAVRRESRYPVSEILAKTPAIPSGCQWGIFLRNHDELTLEMVTDEERDYMYAEYAKDPRMRANIGIRRRLAPLLDNDRNQIELFTALLLSLPGSPILYYGDEIGMGDNIWLGDRDAVRTPMQWTPDRNAGFSSSDPGRLFLPTIMDPVHGYQVTNVEASMASPSSLLHWTRRMIEIRKQNVAFGLGTYTELPSSNPAVLAFLREHEDDLVLCVHNFSRFAQPTELDLSAFDGRHPVELFGGVRFPAVGDLPYLLTLGGHGFYWFRLRKDAA | failed
MMDYLITQNGGMVFAVLAMATATIFSGIGSAKGVGMTGEAAAALTTSQPEKFGQALILQLLPGTQGLYGFVIAFLIFINLGSDMSVVQGLNFLGASLPIAFTGLFSGIAQGKVAAAGIQILAKKPEHATKGIIFAAMVETYAILGFVISFLLVLNA | not failed
MNMVQGSAFLAKLMKSADTFELKYDFSCELYRLSTYSTFPAGVPVSERSLARAGFYYTGVNDKVKCFSCGLMLDNWKQGDSPIEKHRKLYPSCSFVQTLNPANSLEASPQPPLPSTATSTMPSGFAASESTGYFSGSYSSFPSDPVNFRANQDCPAFSTSPYHFAMNTEKARLLTYQTWPLSFLSPAELAKAGFYYTGPGDRVACFACGGKLSNWDRKDDPLSEHRRHFPSCPFLKDVGQFTSQYTVSNLSMQTHAARVRTFSTWPSSALVHPQELASAGFYYTGHSDDVKCFCCDGGLRCWESGDDPWVEHAKWFPRCEYLIRIKGQEFVGQVQAGYPHLLEQLLSTSDSPEDETGEAAIVHLGPGENWEDAVMMNTPVVKAALDMGFSRSLVRQTVQRQILATGENYRTVSDLVIGLLDAEDEMREEQTEQEAEEEESDDLTLIRKNKMVLLQHLTPVTPILDCLLSARVITEQEYDAVKQKPHTLQARTLIDTVLAKGNTAATSFRNSLQEIDPGLYRDIFVRQNIRSLPTDDIAALPMEEQLRKLQEERTCKVCMDREVSLVFIPCGHLVVCKECAPSLRKCPICRGTIKGTVRTFLS | failed
MTGKKTLSIVGASGYAGGEFLRLALSHPYLEVKQVTSRRFAGEPVHFVHPNLRGRTNLKFVPPEKLEPADILVLALPHGVFAREFDRYSALAPVLVDLSADFRLKDPELYRRYYGEHPRPDLLGRFVYAVPELYREALKGADWIAGAGCNATATLLGLYPLLKAGVLKPTPIFVTLLISTSAGGAEASPASHHPERAGSIRVYKPTGHRHTAEVVENLPGRPEVHLTAIATDRVRGILMTAQCFVQDGWSERDVWQAYREAYAGEPFIRLVKQKKGVHRYPDPRFVQGTNYADIGFELEEDTGRLVVMTAIDNLVKGTAGHALQALNVRMGWPETLGLDFPGLHP | not failed
MQRFVCEQNIAHFQKLLETAEDEKLRRTLLGLLSSAKRELALLHSRLSGADLSPLAYRNRGGDLNSVLAQIRAGFDASDHPYMLIDAGPGLKIIDINDAYARATFTAREAIVGKPLFEIFPDNPAIDTADGVSNVYNSLRAVVETGEPHALAVQRYDMRNTEGVFVERYWQSINTPVRDAGGKLICLLHNVEDVTAEVLAN | failed
MLAGGKMGDMKITRHIHACVEISQGNDRIIIDPGTFGAPDLCGATILVTHNHADHVDPELLKPGMTIYAPRSVAHSIPVECHIVEHGRNFTVGSLSVEVLGSEHAMLTHSMPIAENVGYLINGRVLHPGDTFQPIKDVELALVPVNGPWVKMLDVEGYLKKFPPKRFIGIHDGIVNDRGLAINKKFLTHLGETYGSEYSPLEEGESLEILEHHHHHH | failed
MSLEERVKEIIAEQLGVEKEKITPEAKFVEDLGADSLDVVELIMAFEEEFGIEIPDEDAEKIQTVGDVINYLKEKVGG | not failed
MIKSSSKIGLAFFVRPQFDVDLAKNFFNKVQDSLKEAGIATQVFELPVSTDAEALSLAESVNSHQDLHGLIVVQGTFCDASLILNLASNINLPIMIWATKEQPTGGRLSLNSFCGLNLGAHTLVNAGIKFKGVYGSPGSPAVIKKVTSFARAAGAVKWLKGKRIGLFGHRPSGYYPSNFNEILLRKQFGITVEYLSLSEVFSLAQKMEIKDIQPFINTLVGVEGLEMVSTSKSVQAYLALKELIAQKALDAVAVECWPEFMAGFGGAVCYALSRLNDEGIVAACEADVNGAVTMLLGSYLSSQANFIADLVGAEEEQNQLIFWHCGNGPLSLAAPGTNPVAGVHPNRKTPLAMYFPLKGGPVTVSRLSSDHNGNLRLFLGSGTGIETDLLYSGNSLPIQISGSVEETLDTILCEGIEHHYIVTYGDLTSEFREIAELLGLRMITFLEHHHHHH | failed
MELNAVKSSYARWAPIYDKTFGAITNVGRHAAVDYINAHDATELLEVGVGTGLSLPNYRPGLKVTGIDFSEEMLAKARAKVESLGLGHVQSLRQMDARDLDFADASFDVVAAMHIISVVPEPERVMAEMARVCKPGGLIVITNHFARDSGMLARVERFAAPFANLLGWHPDFEISSVLKQPLEHHHHHH | failed
MRWRSSRLGRAPLLGALAILWFAVLLPRGGTAGAGPGARGIRRSTGVCAGSRPRPAALLRRSAKVVAGFSVFGCPATAFESCVLSPAPSNSLASVFLLCLLPGLMEETIHTVSTEAFALQAEDPDHTILDVRPIAAYNGWPLQDESRSGHVPGAKSLPLQWTQYMDWVEVLDEKGLSQNAPVTVYGYTADAAAEMADKLSRLGFEAVGVYDGFLEDWAPDPDRPLQRMERYQQLVYPEWVQRLRTGETPPGMRGDDHVLCHAHFGYRQDYEDGHIPGAIPLNTNALESPETWNRRSPEELKSALEDHGIRHDTTVVLYGRFSYPTYDQDDPAQSAGHLGAMRCAALMLYAGVEDVKILNGGISTWESAGYDVSTDDVEPAPVDDFGAEVPAHPEYMLTLDEAKALLEADDGDLVSVRSWAEFIGERSGYHYIDKTGRIPGAVFGNCGSDAYHMENYRNFDYTTREFSEIAGKWAEMGITPDKHIAFYCGTGWRGSEAFMNAYLMGWPNISVYDGGWYEWSSHPDTETATGVPENDVPA | failed
MITTIISSVVAFATTNIDDIFILLVLFSQVRTEVIRKEGRAVREKATRKKLYIVIGQYLGFSMIIFLSIIGSLSSFFIPVSWIGLLGFVPIYMGVKGLLSLRSYKSNEVIDNVTVSLFKVASITLANGADNISIYIPMFASQTLETNIVTLVIFFSMIAIWCFISYKLIKAPILAKVLEENCHIIVPIVLIGLGMFILFRSGTIGLFS | failed
MRASHETTTSMGHDHNHAPSEIRHETPLWWALGLTATFLLAEIIGAFVTNSLALLSDAAHMATDTVGLMIALVAVRLSRRPADARRTYGYVRLEALGALANGALLFAVGGYILWEAAQRVRAPQDIAYGGMLLIAGFGLVINLIAMKLLHAGSGESLNVKGAYLEVWSDMLGSMAVIIGALLIHWTSWQWIDPVLAVLIGLWVLPRTWVLLREAINVLLEGVPKGIDLAQVQQALTSHPGVEDVHDLHVWALASSTPALTAHIVVNEATDRDRLRDALATLLHDRFDIVHVTLQVESGDCGTEPCGTPKPAADAGHDAHHGHSHAHGHSHH | failed
MRILILGMGGTIASVKGERGYESALSVSKILKLAGISSEAKIEARDLMNVDSTLIQPSDWERLAKEIEKEVWEYDGIVITHGTDTMAYSASMLSFMLRNPPIPIVLTGSMLPITEKNSDAPFNLRTALEFVKLGIRGIYIAFNGKVMLGVRASKIRSMGFDAFESINYPNVAEIKDDKLRILHIPDFYGDEFFSDIKYEPKVLVIKLIPGLSGDIVREALRLGYKGIILEGYGVGGIPYRGTDLFEVVSSISKRIPVVLTTQAIYDGVDLQRYKVGRIALEAGVIPAGDMTKEATITKLMWILGHTKNIEEVKQLMGKNITGELTRVS | not failed
MILLTSVLAIVSVILLTLPLLEAYSLNSSLVGGAVSPGATYSYKMNAVLINFYHNNSISHLLGNFSFTTGYINITMENGYATFSVKLYGQPAGENVTLADSFVLKASDHSSLFESFFPSGLVEAGEFVNVFNNTGQYYGAASAFSSVNVGKGTLFSTSQMVKLINVPEQPSGYFENVSRELNANSVYYIESPSHSFLSHIVFTGNSTVISALLGSSSVSNVTLLYISLEKTDVAVETLNVMHYVMHYIAVVVILWILGVVYMISLYRRVSLKQRR | failed
MSYSEIAACLAYAVSVWLAARNNVHTWWIGIIGSILYGWVFWSVQLYADVTLQLFFIATSITGWIHWLKGQGGDILPVRRTQASHFFLLLLCAVVVAGGYGFLLHTFTNAWAPWLDSLILTFSVLAQFMLMGRRIENWFVWLAVNTLAVPLYMTRGLNLTAGLYFLFWINAWHGLYQWRKELQTS | failed
